According to patent publication US20260184748A1, “COMPOSITIONS COMPRISING OCTADECANEUROPEPTIDES (ODN) AND SYNTHETIC DERIVATIVES THEREOF AND METHODS OF USE FOR MODULATION OF FOOD INTAKE, OBESITY, BODY WEIGHT, NAUSEA, AND EMESIS” (The Trustees of the University of Pennsylvania, priority 2022, published 2026):
Values belong to the substance of their own block, whether it stands above or below them.

What was measured:
Test in all cases: cell-based or functional assay
BRS3 = BRS3 (UniProt P32247)
GRPR = GRPR (UniProt P30550)
CCR7 = CCR7 (UniProt P32248)
GALR2 = target: T1, GALR2 (UniProt O43603)
T1 sequence (looked up): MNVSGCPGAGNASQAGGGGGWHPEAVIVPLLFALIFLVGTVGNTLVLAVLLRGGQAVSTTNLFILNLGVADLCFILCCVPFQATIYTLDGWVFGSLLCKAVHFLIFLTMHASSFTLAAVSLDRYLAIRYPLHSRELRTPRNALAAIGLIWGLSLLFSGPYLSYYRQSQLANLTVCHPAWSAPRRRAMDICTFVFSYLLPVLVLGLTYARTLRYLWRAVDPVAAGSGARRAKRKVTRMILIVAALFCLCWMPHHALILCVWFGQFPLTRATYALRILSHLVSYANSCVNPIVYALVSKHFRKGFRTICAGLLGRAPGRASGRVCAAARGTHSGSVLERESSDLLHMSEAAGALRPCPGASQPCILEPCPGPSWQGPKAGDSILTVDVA

CCR5 = CCR5 (UniProt P51681)
CCR1 = target: T2, CCR1 (UniProt P32246)
T2 sequence (looked up): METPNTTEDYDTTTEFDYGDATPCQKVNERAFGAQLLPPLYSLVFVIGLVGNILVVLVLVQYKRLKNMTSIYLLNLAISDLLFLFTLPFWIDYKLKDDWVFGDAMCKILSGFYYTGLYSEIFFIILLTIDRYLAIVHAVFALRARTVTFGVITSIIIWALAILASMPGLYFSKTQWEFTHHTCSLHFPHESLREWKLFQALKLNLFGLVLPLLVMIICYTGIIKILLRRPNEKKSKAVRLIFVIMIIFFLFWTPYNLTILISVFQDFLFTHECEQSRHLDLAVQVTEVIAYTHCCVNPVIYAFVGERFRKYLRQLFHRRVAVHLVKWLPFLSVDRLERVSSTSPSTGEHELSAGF

NPY1R = NPY1R (UniProt P25929)
CXCR1 = target: T3, CXCR1 (UniProt P25024)
T3 sequence (looked up): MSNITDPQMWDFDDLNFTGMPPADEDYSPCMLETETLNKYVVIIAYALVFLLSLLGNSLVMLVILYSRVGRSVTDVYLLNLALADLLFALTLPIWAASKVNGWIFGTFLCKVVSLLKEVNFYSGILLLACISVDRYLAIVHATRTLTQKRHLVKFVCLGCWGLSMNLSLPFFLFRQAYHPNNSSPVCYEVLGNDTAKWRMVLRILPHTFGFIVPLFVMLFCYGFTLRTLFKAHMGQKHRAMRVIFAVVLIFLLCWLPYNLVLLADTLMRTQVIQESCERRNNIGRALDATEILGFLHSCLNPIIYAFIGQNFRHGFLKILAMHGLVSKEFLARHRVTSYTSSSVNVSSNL

CXCR2 = CXCR2 (UniProt P25025)
PRLHR = PRLHR (UniProt P49683)
CCR6 = target: T4, CCR6 (UniProt P51684)
T4 sequence (looked up): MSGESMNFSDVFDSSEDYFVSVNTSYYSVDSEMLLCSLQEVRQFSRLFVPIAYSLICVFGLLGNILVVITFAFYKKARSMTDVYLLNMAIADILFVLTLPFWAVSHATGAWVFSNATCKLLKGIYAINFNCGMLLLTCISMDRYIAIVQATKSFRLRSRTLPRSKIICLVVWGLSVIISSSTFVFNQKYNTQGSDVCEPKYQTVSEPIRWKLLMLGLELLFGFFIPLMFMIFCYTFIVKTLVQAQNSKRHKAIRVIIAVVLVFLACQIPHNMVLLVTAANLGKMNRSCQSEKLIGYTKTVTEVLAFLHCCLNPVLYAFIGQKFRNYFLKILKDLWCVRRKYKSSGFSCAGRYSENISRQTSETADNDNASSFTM

CCR9 = CCR9 (UniProt P51686)
TRHR = TRHR (UniProt P34981)
CCR2 = CCR2 (UniProt P41597)
CX3CR1 = CX3CR1 (UniProt P49238)
GLP2R = GLP2R (UniProt O95838)
GIPR = GIPR (UniProt P48546)
MLNR = MLNR (UniProt O43193)
SCTR = SCTR (UniProt P47872)
KISS1R = KISS1R (UniProt Q969F8)
OXTR = OXTR (UniProt P30559)
BDKRB1 = BDKRB1 (UniProt P46663)
GPR1 = GPR1 (UniProt P46091)
HCRTR2 = HCRTR2 (UniProt O43614)
CCR3 = CCR3 (UniProt P51677)
BDKRB2 = BDKRB2 (UniProt P30411)
C5aR1 = C5aR1 (UniProt P21730)
C5L2 = C5L2 (UniProt Q9P296)
[1] = target: relaxin-3 receptor (RXFP3) (UniProt Q9NSD7)
CALCR-RAMP3 = target: T5, CALCR-RAMP3 (UniProt P30988)
T5 sequence (looked up) 1: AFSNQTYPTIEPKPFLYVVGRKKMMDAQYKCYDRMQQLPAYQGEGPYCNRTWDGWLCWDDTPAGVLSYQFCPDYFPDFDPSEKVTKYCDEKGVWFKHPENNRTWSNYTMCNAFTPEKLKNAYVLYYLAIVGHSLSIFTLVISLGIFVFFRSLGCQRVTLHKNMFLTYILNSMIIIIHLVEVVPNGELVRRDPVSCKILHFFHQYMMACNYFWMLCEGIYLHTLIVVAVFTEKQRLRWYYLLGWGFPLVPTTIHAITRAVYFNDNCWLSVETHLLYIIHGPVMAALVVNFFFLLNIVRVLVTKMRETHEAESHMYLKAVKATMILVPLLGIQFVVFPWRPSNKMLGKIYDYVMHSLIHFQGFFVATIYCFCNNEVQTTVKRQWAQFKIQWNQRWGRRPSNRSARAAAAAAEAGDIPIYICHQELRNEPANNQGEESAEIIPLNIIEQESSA
T5 sequence (looked up) 2: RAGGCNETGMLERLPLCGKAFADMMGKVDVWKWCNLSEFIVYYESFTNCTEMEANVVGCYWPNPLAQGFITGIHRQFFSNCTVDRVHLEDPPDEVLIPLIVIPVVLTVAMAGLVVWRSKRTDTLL

CALCR-RAMP2 = CALCR-RAMP2 (UniProt P30988)
CALCR = target: T6, CALCR (UniProt P30988)
T6 sequence (looked up): T5 sequence (looked up) 1

VIPR1 = VIPR1 (UniProt P32241)

Chain of CXCL8 (P10145 28-99 limits assumed): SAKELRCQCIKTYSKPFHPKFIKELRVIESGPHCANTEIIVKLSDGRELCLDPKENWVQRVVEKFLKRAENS
Chain of Calcitonin (P01258 85-116 limits assumed): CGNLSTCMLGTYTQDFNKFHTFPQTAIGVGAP
Chain of CCL3 (P10147 24-92 limits assumed): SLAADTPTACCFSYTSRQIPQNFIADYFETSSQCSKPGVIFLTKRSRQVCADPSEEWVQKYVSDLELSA
Chain of Complement C5a (P01031 678-751 limits assumed): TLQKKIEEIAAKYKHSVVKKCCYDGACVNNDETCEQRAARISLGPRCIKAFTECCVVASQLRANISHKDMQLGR
Chain of CCR3 (P51677 whole entry): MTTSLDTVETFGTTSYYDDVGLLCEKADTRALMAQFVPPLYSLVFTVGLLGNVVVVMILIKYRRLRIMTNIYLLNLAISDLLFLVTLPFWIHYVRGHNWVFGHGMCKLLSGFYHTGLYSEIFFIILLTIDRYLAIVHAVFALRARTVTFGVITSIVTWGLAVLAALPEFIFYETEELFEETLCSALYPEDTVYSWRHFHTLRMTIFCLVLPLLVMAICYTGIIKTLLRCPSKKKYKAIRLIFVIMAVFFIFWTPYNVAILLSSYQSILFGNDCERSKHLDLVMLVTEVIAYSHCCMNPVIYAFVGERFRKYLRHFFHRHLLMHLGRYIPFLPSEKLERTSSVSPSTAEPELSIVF
Chain of Fractalkine (P78423 25-100 limits assumed): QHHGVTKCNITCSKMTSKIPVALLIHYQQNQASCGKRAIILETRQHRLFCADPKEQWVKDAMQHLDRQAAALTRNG
Chain of GPR1 (P46091 whole entry): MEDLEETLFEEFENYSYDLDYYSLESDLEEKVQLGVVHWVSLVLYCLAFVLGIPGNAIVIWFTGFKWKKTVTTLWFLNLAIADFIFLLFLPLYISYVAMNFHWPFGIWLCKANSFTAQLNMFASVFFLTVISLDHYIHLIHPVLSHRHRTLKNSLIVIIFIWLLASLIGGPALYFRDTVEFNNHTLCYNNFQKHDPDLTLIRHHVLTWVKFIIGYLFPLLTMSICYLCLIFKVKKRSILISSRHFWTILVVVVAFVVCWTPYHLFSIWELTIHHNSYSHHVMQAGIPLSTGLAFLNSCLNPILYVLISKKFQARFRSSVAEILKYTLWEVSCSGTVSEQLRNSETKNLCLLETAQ
Chain of HCRTR2 (O43614 whole entry): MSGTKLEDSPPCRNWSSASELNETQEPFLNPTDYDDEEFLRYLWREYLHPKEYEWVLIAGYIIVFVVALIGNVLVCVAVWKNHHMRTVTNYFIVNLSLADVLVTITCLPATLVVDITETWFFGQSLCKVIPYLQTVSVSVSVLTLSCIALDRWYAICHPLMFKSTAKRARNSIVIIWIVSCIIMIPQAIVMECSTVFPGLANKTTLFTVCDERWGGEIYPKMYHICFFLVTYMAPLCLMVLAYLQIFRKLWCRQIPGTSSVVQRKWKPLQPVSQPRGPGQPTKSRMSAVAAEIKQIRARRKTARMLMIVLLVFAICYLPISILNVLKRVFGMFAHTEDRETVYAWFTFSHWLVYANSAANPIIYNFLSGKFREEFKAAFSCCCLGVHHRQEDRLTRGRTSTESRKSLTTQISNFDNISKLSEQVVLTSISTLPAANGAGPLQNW
Chain of relaxin-3 receptor (RXFP3) (Q9NSD7 whole entry): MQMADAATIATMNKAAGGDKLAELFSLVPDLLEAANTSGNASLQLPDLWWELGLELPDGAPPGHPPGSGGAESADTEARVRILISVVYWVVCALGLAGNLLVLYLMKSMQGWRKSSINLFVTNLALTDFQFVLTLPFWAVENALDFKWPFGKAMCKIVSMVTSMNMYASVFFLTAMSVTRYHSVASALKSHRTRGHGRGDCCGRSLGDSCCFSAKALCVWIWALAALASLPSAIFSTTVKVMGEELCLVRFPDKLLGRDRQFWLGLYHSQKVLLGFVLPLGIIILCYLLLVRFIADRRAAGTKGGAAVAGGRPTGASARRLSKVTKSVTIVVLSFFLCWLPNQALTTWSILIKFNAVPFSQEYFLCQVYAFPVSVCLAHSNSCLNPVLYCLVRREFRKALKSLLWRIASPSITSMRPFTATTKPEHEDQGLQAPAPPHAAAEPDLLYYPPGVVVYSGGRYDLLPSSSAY
Chain of GRPR (P30550 whole entry): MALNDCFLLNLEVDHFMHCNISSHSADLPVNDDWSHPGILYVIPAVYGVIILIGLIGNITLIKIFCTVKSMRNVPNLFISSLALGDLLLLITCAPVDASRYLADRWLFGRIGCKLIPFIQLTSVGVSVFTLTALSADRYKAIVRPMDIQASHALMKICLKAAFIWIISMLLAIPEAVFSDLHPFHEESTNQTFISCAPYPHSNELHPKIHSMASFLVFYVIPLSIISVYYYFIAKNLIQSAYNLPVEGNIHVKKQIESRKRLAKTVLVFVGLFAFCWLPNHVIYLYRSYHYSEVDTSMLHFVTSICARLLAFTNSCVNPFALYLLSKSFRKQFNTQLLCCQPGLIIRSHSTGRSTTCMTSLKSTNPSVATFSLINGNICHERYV
Chain of CCR9 (P51686 whole entry): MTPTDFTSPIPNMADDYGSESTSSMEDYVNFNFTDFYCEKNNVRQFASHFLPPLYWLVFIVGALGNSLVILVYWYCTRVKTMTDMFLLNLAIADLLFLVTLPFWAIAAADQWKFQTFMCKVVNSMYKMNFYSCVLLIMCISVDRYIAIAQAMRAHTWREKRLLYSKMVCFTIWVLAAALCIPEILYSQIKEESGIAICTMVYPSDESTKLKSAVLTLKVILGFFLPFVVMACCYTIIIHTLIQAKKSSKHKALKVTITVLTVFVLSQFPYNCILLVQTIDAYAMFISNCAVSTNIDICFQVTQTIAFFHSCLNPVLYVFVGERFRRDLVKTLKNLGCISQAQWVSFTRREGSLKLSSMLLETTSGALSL
Chain of TRHR (P34981 whole entry): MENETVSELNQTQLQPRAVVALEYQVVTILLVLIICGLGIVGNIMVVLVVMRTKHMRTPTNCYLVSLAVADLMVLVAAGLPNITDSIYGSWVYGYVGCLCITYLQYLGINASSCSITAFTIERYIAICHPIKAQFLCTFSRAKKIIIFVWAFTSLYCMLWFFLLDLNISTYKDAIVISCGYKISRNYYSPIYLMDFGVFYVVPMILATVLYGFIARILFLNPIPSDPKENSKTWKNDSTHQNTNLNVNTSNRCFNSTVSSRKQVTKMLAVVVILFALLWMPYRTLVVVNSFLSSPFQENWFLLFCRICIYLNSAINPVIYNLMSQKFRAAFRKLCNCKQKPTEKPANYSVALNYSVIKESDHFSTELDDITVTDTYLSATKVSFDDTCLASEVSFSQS
Chain of C5aR1 (P21730 whole entry): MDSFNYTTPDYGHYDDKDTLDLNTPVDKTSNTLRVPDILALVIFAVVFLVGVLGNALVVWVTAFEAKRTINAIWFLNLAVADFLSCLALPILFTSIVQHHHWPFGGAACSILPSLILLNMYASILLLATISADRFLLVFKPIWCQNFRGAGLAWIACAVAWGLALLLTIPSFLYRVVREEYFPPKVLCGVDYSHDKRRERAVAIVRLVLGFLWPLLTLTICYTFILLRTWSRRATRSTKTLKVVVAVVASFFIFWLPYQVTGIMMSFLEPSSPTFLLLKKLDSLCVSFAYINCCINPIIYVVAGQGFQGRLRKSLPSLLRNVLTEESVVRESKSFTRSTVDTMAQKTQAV
Chain of BDKRB2 (P30411 whole entry): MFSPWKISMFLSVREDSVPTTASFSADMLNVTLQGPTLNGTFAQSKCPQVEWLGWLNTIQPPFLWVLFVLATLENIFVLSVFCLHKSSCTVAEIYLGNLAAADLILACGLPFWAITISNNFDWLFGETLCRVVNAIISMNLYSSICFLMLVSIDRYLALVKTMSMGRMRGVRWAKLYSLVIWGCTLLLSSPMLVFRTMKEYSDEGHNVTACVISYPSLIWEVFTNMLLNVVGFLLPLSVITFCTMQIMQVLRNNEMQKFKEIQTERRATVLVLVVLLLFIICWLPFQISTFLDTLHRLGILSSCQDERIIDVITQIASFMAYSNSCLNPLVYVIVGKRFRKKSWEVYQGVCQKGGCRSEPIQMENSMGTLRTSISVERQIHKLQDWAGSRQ
Chain of CX3CR1 (P49238 whole entry): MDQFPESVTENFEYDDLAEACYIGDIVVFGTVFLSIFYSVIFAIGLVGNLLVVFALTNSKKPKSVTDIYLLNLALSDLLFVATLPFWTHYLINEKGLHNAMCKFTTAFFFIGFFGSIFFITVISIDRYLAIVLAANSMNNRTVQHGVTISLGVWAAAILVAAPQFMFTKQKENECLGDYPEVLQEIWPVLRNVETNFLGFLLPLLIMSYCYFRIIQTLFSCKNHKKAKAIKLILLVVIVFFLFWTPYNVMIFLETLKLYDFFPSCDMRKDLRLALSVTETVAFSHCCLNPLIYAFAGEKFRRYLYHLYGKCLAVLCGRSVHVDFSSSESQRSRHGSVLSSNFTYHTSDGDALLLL
Chain of CCR2 (P41597 other isoform, or with tags, fused parts or gaps limits assumed): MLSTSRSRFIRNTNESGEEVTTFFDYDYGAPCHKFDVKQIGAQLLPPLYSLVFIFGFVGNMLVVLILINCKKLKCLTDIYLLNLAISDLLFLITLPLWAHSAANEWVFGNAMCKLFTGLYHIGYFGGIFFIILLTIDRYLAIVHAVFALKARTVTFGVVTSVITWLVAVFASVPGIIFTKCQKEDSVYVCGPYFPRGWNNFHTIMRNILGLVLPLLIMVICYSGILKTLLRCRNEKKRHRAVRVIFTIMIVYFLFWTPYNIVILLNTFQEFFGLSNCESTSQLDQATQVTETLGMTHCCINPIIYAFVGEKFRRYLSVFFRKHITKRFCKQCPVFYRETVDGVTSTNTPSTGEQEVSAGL
Chain of CCL20 (P78556 27-96 limits assumed): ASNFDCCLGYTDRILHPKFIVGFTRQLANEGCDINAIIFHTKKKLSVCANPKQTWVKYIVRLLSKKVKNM
Chain of CCL19 (Q99731 22-98 limits assumed): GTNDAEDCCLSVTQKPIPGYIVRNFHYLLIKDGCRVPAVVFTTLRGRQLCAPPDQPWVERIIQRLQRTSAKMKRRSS
Chain of Galanin (P22466 33-62 limits assumed): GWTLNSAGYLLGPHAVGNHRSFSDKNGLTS

Substance: TAPN-Bombesin (peptide)
EC50 (RC50), arrestin, agonist mode (BRS3): 1.24 nM | EC80, arrestin, agonist mode (BRS3): 3.73 nM

Substance: CCL19 (from UniProt Q99731 22-98) (ligand)
EC50 (RC50), arrestin, agonist mode (CCR7): 5.65 nM | EC80, arrestin, agonist mode (CCR7): 19 nM

Substance: CCL3 (from UniProt P10147 24-92) (ligand)
EC50 (RC50), arrestin, agonist mode (CCR5): 7.55 nM | EC80, arrestin, agonist mode (CCR5): 30.3 nM | EC50 (RC50), arrestin, agonist mode (CCR1): 1.04 nM | EC80, arrestin, agonist mode (CCR1): 2.53 nM

Substance: CXCL8 (from UniProt P10145 28-99) (ligand)
EC50 (RC50), arrestin, agonist mode (CXCR1): 2.8 nM | EC80, arrestin, agonist mode (CXCR1): 14.8 nM | EC50 (RC50), arrestin, agonist mode (CXCR2): 0.304 nM | EC80, arrestin, agonist mode (CXCR2): 0.968 nM

Substance: PrRP-31 (from UniProt P81277 23-53) (peptide)
EC80, arrestin, agonist mode (PRLHR): 10.7 nM

Substance: CCL20 (from UniProt P78556 27-96) (ligand)
EC50 (RC50), arrestin, agonist mode (CCR6): 2.95 nM | EC80, arrestin, agonist mode (CCR6): 14.3 nM

Substance: CCL2 (from UniProt P13500 24-99) (ligand)
EC50 (RC50), arrestin, agonist mode (CCR2): 2.63 nM | EC80, arrestin, agonist mode (CCR2): 6.92 nM

Substance: Fractalkine (from UniProt P78423 25-100) (ligand)
EC50 (RC50), arrestin, agonist mode (CX3CR1): 0.444 nM | EC80, arrestin, agonist mode (CX3CR1): 1.45 nM

Substance: GLP II (1-33) (from UniProt P01275 21-180) (peptide)
EC50 (RC50), arrestin, agonist mode (GLP2R): 2.3 nM | EC80, arrestin, agonist mode (GLP2R): 8.97 nM

Substance: GIP (from UniProt P09681 52-93) (peptide)
EC50 (RC50), arrestin, agonist mode (GIPR): 4.87 nM | EC80, arrestin, agonist mode (GIPR): 18.5 nM

Substance: Kisspeptin-10 (from UniProt Q15726 112-121) (peptide)
EC50 (RC50), arrestin, agonist mode (KISS1R): 17.6 nM | EC80, arrestin, agonist mode (KISS1R): 37.6 nM

Substance: Oxytocin (from UniProt P01178 20-28) (peptide)
EC50 (RC50), arrestin, agonist mode (OXTR): 3.23 nM | EC80, arrestin, agonist mode (OXTR): 7.19 nM

Substance: Chemerin (from UniProt Q99969 21-157) (ligand)
EC50 (RC50), arrestin, agonist mode (GPR1): 2.26 nM | EC80, arrestin, agonist mode (GPR1): 4.67 nM

Substance: Bradykinin (from UniProt P01042 381-389) (peptide)
EC50 (RC50), arrestin, agonist mode (BDKRB2): 5.57 nM | EC80, arrestin, agonist mode (BDKRB2): 9.82 nM

Further lines, results first:

EC50 (RC50), arrestin, agonist mode (GRPR): 1.62 nM | EC80, arrestin, agonist mode (GRPR): 5.92 nM
Substance: GRP (from UniProt P07492 24-50) (peptide)

EC50 (RC50), arrestin, agonist mode (GALR2): 6.81 nM | EC80, arrestin, agonist mode (GALR2): 12.2 nM
Substance: Galanin (from UniProt P22466 33-62) (peptide)

EC50 (RC50), arrestin, agonist mode (NPY1R): 3.93 nM | EC80, arrestin, agonist mode (NPY1R): 12.4 nM
Substance: Peptide YY (from UniProt P10082 29-64)

EC50 (RC50), arrestin, agonist mode (CCR9): 173 nM | EC80, arrestin, agonist mode (CCR9): 370 nM
Substance: CCL25 (from UniProt O15444 24-150) (ligand)

EC50 (RC50), arrestin, agonist mode (TRHR): 2.02 nM | EC80, arrestin, agonist mode (TRHR): 7.14 nM
Substance: TRH (from UniProt P20396 84-86) (peptide)

EC50 (RC50), arrestin, agonist mode (MLNR): 1.59 nM | EC80, arrestin, agonist mode (MLNR): 5.63 nM
Substance: Motilin (from UniProt P12872 26-47) (peptide)

EC50 (RC50), arrestin, agonist mode (SCTR): 1.74 nM | EC80, arrestin, agonist mode (SCTR): 9.2 nM
Substance: Secretin (from UniProt P09683 28-54) (peptide)

EC50 (RC50), arrestin, agonist mode (BDKRB1): 3.65 nM | EC80, arrestin, agonist mode (BDKRB1): 14 nM
Substance: LDA-Bradykinin (peptide)

EC50 (RC50), arrestin, agonist mode (HCRTR2): 18.2 nM | EC80, arrestin, agonist mode (HCRTR2): 42.5 nM
Substance: Orexin A (from UniProt O43612 34-66) (peptide)

EC50 (RC50), arrestin, agonist mode (CCR3): 40.6 nM | EC80, arrestin, agonist mode (CCR3): 140 nM
Substance: CCL13 (from UniProt Q99616 24-98) (ligand)

EC50 (RC50), arrestin, agonist mode (C5aR1): 1.38 nM | EC80, arrestin, agonist mode (C5aR1): 3.64 nM | EC50 (RC50), arrestin, agonist mode (C5L2): 1.57 nM | EC80, arrestin, agonist mode (C5L2): 2.7 nM
Substance: Complement C5a (from UniProt P01031 678-751) (ligand)

EC50 (RC50), arrestin, agonist mode [1]: 11.9 nM | EC80, arrestin, agonist mode [1]: 62.5 nM
Substance: Relaxin-3 (from UniProt Q8WXF3 26-142; Q8WXF3 26-142) (ligand)

EC80, arrestin, agonist mode (CALCR-RAMP3): 384 nM | EC80, arrestin, agonist mode (CALCR-RAMP2): 33.7 nM | EC80, arrestin, agonist mode (CALCR): 72.9 nM
Substance: Calcitonin (from UniProt P01258 85-116) (peptide)

EC50 (RC50), arrestin, agonist mode (VIPR1): 1.73 nM | EC80, arrestin, agonist mode (VIPR1): 3.69 nM
Substance: VIP (from UniProt P01282 125-152) (peptide)
